{
  "source": "paper PMC3274258",
  "origin": "cited, not measured here",
  "key": {"[1]": {"target": "Halobacterial transducer of SRI (HsHtrI)", "assay": "not stated in the review (pKa determination quoted from ref 124)", "conditions": "pH"}, "Asp72": {"system": "Asp72", "assay": "pH titration; the review does not name the technique, and UV-vis absorption of the retinal chromophore is inferred", "conditions": "dark state"}, "[2]": {"target": "Halobacterial transducer of SRII, truncated (NpHtrII, pHtrII) (UniProt P42259)", "sequence (P42259 whole entry, the tested form may be a part)": "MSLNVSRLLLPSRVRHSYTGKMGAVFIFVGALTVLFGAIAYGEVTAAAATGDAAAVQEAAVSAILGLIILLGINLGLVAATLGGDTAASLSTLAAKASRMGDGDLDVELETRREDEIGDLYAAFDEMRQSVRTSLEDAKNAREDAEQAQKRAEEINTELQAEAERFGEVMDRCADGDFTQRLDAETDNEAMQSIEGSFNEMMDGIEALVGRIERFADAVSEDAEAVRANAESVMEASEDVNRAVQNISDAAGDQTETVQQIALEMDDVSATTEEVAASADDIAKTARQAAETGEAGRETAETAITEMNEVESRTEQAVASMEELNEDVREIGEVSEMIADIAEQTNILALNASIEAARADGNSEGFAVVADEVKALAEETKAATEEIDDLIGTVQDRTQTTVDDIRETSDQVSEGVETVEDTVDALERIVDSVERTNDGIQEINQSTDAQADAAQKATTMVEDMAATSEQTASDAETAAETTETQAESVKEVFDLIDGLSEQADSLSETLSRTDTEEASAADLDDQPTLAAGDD", "assay": "not stated in the review (pKa determination of ref 50)", "conditions": "pH"}, "[3]": {"target": "Salinibacter transducer of SRI (SrHtrI)", "assay": "pH titration experiments (ref 123; detection not specified in the review)"}, "Asp193": {"target": "Asp193 (UniProt position 193, LTPTVDVALIV)", "conditions": "dark (ground) state"}, "[4]": {"target": "HtrII (Natronomonas pharaonis) (UniProt P42259)", "sequence (P42259 whole entry)": "as the sequence (P42259 whole entry, the tested form may be a part) above"}, "[5]": {"target": "HtrII (Natronomonas pharaonis) (UniProt P42259)", "remark": "listed apart in the source"}, "[6]": {"target": "HtrII (Natronomonas pharaonis) (UniProt P42259)", "remark": "listed apart in the source"}, "Asp76": {"target": "Asp76 (UniProt position 76, GLRYIDWLVTT)"}},
  "note": "Where “and” joins values, the source holds several entries; their conditions need not be identical. Identical values can stand only once. Like-named read-outs stand apart in the source and are kept apart here.",
  "data": [
    {"substance": "Sensory rhodopsin I (HsSRI)", "values": [
      {"measurement": "pKa, Asp76 of HsSRI (Schiff-base counterion)", "setting": "[1]", "result": "7.2 pH units and 8.5 pH units"}
    ]},
    {"substance": "Salinibacter sensory rhodopsin I (SrSRI) (Salinibacter ruber)", "values": [
      {"measurement": "pKa", "setting": "Asp72; SrSRI without SrHtrI", "result": 4.3}
    ]},
    {"substance": "Sensory rhodopsin II (NpSRII, pharaonis phoborhodopsin, ppR)", "values": [
      {"measurement": "pKa, Asp193 of NpSRII", "setting": "[2]", "result": "6.4 pH units and 5.6 pH units"}
    ]},
    {"substance": "Salinibacter sensory rhodopsin I (SrSRI)", "values": [
      {"measurement": "pKa, Asp72 of SrSRI (Schiff-base counterion)", "setting": "[3]", "result": "4.3 pH units and 4.9 pH units"}
    ]},
    {"substance": "Sensory rhodopsin II (NpSRII; pharaonis phoborhodopsin, ppR) (Natronomonas pharaonis)", "values": [
      {"measurement": "pKa", "setting": "Asp193; NpSRII bound to truncated NpHtrII (1-114 or 1-159)", "result": 5.6},
      {"measurement": "pKa", "setting": "Asp193; NpSRII transducer-free", "result": 6.4}
    ]},
    {"substance": "SrSRI-SrHtrI fusion (Salinibacter sensory rhodopsin I fused to its full-length transducer) (Salinibacter ruber)", "values": [
      {"measurement": "pKa", "setting": "Asp72; SrSRI associated with SrHtrI (fusion construct)", "result": 4.9}
    ]},
    {"substance": "SRII (from UniProt P42196)", "values": [
      {"measurement": "Kd", "setting": "[4]", "result": 5, "unit": "µM"},
      {"measurement": "Kd", "setting": "[5]", "result": 15, "unit": "µM"},
      {"measurement": "Kd", "setting": "[6]", "result": 0.16, "unit": "µM"}
    ]},
    {"substance": "Sensory rhodopsin I (HsSRI) (Halobacterium salinarum)", "values": [
      {"measurement": "pKa", "setting": "Asp76; HsSRI associated with HsHtrI", "result": 8.5},
      {"measurement": "pKa", "setting": "Asp76; HsSRI without HsHtrI", "result": 7.2}
    ]}
  ]
}
